System: MS2 coat protein
Experiment: apparent KD of MS2 coat protein; designed switch direction (-1 OFF switch, 1 ON switch): -1; higher = weaker reporter binding
Outline: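 Transcription of designed RNA switches on Illumina chips was done by stalled E. coli RNA polymerase. SNAP-549-labelled MS2 coat protein was then titrated in doubling steps from 0.7 or 1.5 nM to 3 µM, with steps of 0.8–1.5 h at the lowest and 10–20 min at the highest concentration. The per-design median over clusters of curve-fitted normalised fluorescence is reported as apparent KD.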

[1] = Eterna round: R95, input ligand: FMN 200 uM
[2] = Eterna round: R95, input ligand: microRNA oligo, concentration not stated
[3] = Eterna round: R95, input ligand: none
[4] = input ligand: microRNA oligo, concentration not stated

Sequence | apparent KD of MS2 coat protein (input ligand: FMN 200 uM) [nM] | apparent KD of MS2 coat protein (input ligand: none) [nM] | apparent KD of MS2 coat protein [2] [nM] | other results
AUUUAGCAAGCCAGAUCCUACAUGAGGAUCACCCAUGUAGUUCGUCUUAUUUGAAGACAACACAAAAGUGUUGUCUU [Omei Mir OFFv1 B6] (Eterna round: R97, puzzle: Sensor, turn-off variant 1) | 15.7 | 14 |  | 
UUUGCAAGCUUAUGAUCCCACAUGAGGAUCACCCAUGUUCCUGGCCGUGAGGCUAGGAUAACAUAUGCUCGUCUUAU [JL TOV1 3.64] (Eterna round: R97, puzzle: Sensor, turn-off variant 1) | 703 | 814 |  | 
UAUUAGCAAGCGAGAUCCCACAUGAGGAUCACCCAUGUGCUCGUCUUAUAAGGUACUGUGACGAAAGUCACGGUACC [Sensor 3, v1 - 95 v5] (Eterna round: R97, puzzle: Sensor, turn-off variant 1) | 16.8 | 15.3 |  | 
AUAUAAACAUAGGAUAUCGAAUUUAUCAUUUAACGAGAAGGAUGAACAUGAGGAUCACCCAUGUGGUAUCAUGG [Mat - Exclusion 6 - JL Mod - D5] (puzzle: Exclusion 6) |  |  | 333 | apparent KD of MS2 coat protein [1]: 553 nM; apparent KD of MS2 coat protein [3]: 340 nM
GUUAUGUCAGGAUAUGCUAAUGAUGAGUGAUCAGACAUGAUGUAGAAGGGACAUGAGGAUCACCCAUGUACUAA [EX4 #9] (Eterna round: R97, puzzle: Exclusion 4) | 30.6 | 29 |  | 
UAAUAAAGUGUGAGGAUAUGCUGGUCGAUAGAUCAGCAGAAGGCACAUGAGGAUCACCCAUGUAAUAUAUAAAU [Mat - Exclusion 4 - JL Mod - D58] (puzzle: Brourd's mod of Exclusion 4) |  |  | 40.9 | apparent KD of MS2 coat protein [1]: 258 nM; apparent KD of MS2 coat protein [3]: 45 nM
AGGAGACAUGAGGAUCACCCAUGUGAGGAUAUCGAUGUUACGUGGAUAACCACUUCGUUGAGAAGGCACGCUUC [Eternabot (L2) Solution 55] (Eterna round: R97, puzzle: Exclusion 1) | 43 | 38.6 |  | 
AACAGUACAGGAUAUACAUGAGGAUCACCCAUGUGAGAAUUAAGUGGAAAACCACAAAGUAGAAGGGUACUGGA [Mat - Exclusion 3 - JL mod - D3] (Eterna round: R96, puzzle: Exclusion 3) | 209 |  |  | apparent KD of MS2 coat protein [4]: 23.3 nM
CUUAACUCAGGAUAUGCGGCGACAAACAUGAGGAUCACCCAUGUAAAUUGGUGAACCUGAGCAGAAGGGAGUACAA [EX5 B.2] (Eterna round: R97, puzzle: Exclusion 5) | 66.4 | 22.6 |  | 
AUCAUGUCAGGAUAUCUGAUAUGGAUCUUCGGAUCAAGUUCAGAGAAGGGACAUGAGGAUCACCCAUGUCGAAC [Ex4-3: 31] (puzzle: Exclusion 4) |  |  | 25.6 | 
UCGUGGUUACGCUGCAGUUGCCUGAGCGGAGGCUCUGUGACAUGAGGAUCACCCAUGUAGCUUUUUGCUCAUCUUAA [JR_SV3TOV2_Sub040] (puzzle: Sensor v3, turn-off variant 2) |  |  | 39.9 | apparent KD of MS2 coat protein [1]: 25.2 nM; apparent KD of MS2 coat protein [3]: 24.6 nM
CUUUUGUGAGGAUAUCAGGUGUGCUAGCGUACUGGUACAUCUGAGAAGGCACAUGAGGAUCACCCAUGUUCCUC [JL-ex4-3.17 Brourd mod] (puzzle: Exclusion 4) |  |  | 39.1 | 
AUCAUGUAAGGAUAUCUGACAUGUGACUUCGGUCACUGUUCAGAGAAGGUACAUGAGGAUCACCCAUGUAGAAC [Ex4-3: 44] (puzzle: Exclusion 4) |  |  | 59.6 | 
GUGACCAUAGGAUAUACAUGAGGAUCACCCAUGUGCAGGUCGGAAGACCCGCGGUCAUGUAGAAGGAUGUAAUU [EX3 A.23] (Eterna round: R97, puzzle: Exclusion 3) | 18.2 | 16.2 |  | 
AUCAGCUCGUGAGGAUAUGAACAUGAGGAUCACCCAUGUAAGAUCAAGCUGCUUCGGCAGCAAGUUCAGAAGGCACGAGCUGAU [ENG2/10-A3] (Eterna round: R96, puzzle: Exclusion NG 2) | 182 | 156 |  | apparent KD of MS2 coat protein [4]: 84 nM
UUUUUAUUUGAAGGAUAUACUUAACAUGAGGAUCACCCAUGUGGUGUUGUGAGUGAGUGAGUUUAGUAGAAGGUCAAUUAUUUU [JMF's solution 18] (Eterna round: R96, puzzle: Exclusion NG 2) |  |  |  | apparent KD of MS2 coat protein [4]: 359 nM
AUAAAAUGCCAAGGAUAUCGGAAAGGAAGUGUACGAGAAGGUGGAGAUCCUAUACAUGAGGAUCACCCAUGUAUCAAGCUUGGG [PowerStrip EXNG 1.10] (Eterna round: R96, puzzle: Exclusion NG 1) | 692 | 760 |  | apparent KD of MS2 coat protein [4]: 510 nM
UAAAGUAUAUAGGAUAUCUAGCUGGAAACAGCUAGAGAAGGAUGUACAUGAGGAUCACCCAUGUAGAUCUCAAA [Ex6/15-A2] (Eterna round: R97, puzzle: Exclusion 6) | 19 | 16.2 |  | 
